Reference: patent US20130039936A1 (published 2013)

Target: T1, HLA-A2 molecule on T2 cells (human)
T1 construct: also called HLA-A2.1; HLA-A2 molecules
Test: T2 binding assay, FI0.5 against wild type POTE 323
Description: (§1) Peptide binding capacity to the HLA-A2 molecule was measured by using the T2 cell line according to a protocol described previously (Peters et al., Bioinformatics 19(14):1765-1772, 2003). […] Cells were washed once with cold HBSS containing 0.1% BSA and incubated for 30 minutes at 4° C. with anti-HLA-A2.1 BB7.2 monoclonal antibody (1:40 dilution from hybridoma supernatant). After washing, cells were stained with FITC-labeled goat anti-mouse immunoglobulin (BD, San Jose, Calif.), and the level of HLA expression was measured by flow cytometry. HLA-A2 expression was quantified as fluorescence index (FI) according to the following formula: FI=[(geometric mean fluorescence intensity with peptide-geometric mean fluorescence intensity without peptide)/geometric mean fluorescence intensity without peptide]. Background fluorescence without BB7.2 was subtracted for each individual value. To compare the different peptides, FI_{0.5}, the peptide concentration that increases HLA-A2.1 expression by 50% over no peptide control background, was calculated from the titration curve for each peptide.

Binder | fold better FI0.5 than wild-type POTE 323
LLFEQNVDV [POTE 323-3F] | ~3 fold

Target: T1, HLA-A2 molecule on T2 cells
Test: T2 binding assay, FI0.5 against wild type POTE 252
Description: as §1

Binder | fold lower FI0.5 than POTE 252
YLMAKALLL [POTE 252-1Y] | ~2 fold
KLMAKALLV [POTE 252-9V] | ~2 fold

Target: T1, HLA-A2 molecule on T2 cells
Test: T2 binding assay (flow cytometry, BB7.2 anti-HLA-A2 stain of peptide-loaded T2 cells)
Description: Background fluorescence without BB7.2 was subtracted for each individual value. To compare the different peptides, FI_{0.5} (the peptide concentration that increases HLA-A2.1 expression by 50% over no peptide control background) was calculated from the titration curve for each peptide. […] Each assay was performed in triplicate, and data in this figure are representative of two experiments with similar results.
as §1
The binding affinity of the predicted peptides with HLA-A2 molecules was measured by the T2 binding assay.

Binder | FI0.5
KLMAKALLL [POTE 252-260] | 1.6 µM
KILEEIESV [POTE 553-561] | 5.6 µM
LLLEQNVDV [POTE 323-331] | 0.8 µM
GLTPLLLGV [POTE 272-280] | 0.9 µM

Target: T1, HLA-A2 molecule on T2 cells
Test: as above
Remark: another data set of the same source
Description: as §1, with “peptide. […]” for “peptide.”

Binder | FI0.5
KLMAKALLL [POTE 252-260] | 1.5 µM
YLMAKALLL [POTE 252-1Y] | 0.9 µM
KLAAKALLL [POTE 252-3A] | 16.9 µM
KLFAKALLL [POTE 252-3F] | 1.5 µM
KLMAKAALL [POTE 252-7A] | 4 µM
KLMAKALLV [POTE 252-9V] | 0.8 µM
KILEEIESV [POTE 553-561] | 2.6 µM
KLLEEIESV [POTE 553-2L] | 0.1 µM
YILEEIESV [POTE 553-1Y] | 0.024 µM
KIFEEIESV [POTE 553-3F] | 0.3 µM
KILEEIASV [POTE 553-7A] | 0.2 µM
LLLEQNVDV [POTE 323-331] | 0.3 µM
LLAEQNVDV [POTE 323-3A] | 0.4 µM
LLFEQNVDV [POTE 323-3F] | 0.09 µM
YLLEQNVDV [POTE 323-1Y] | 0.25 µM
LLLEQNADV [POTE 323-7A] | 2.78 µM
